Data from patent US20100330076A1 (RESEARCH DEVELOPMENT FOUNDATION, published 2010).

molecular target: T1, extracellular domain of recombinant glycosylated FcγRIa/CD64 (R&D Systems) labeled with FITC (human, UniProt P12314 16-292, FITC-labeled; glycosylated); test: flow cytometry of E. coli spheroplasts labeled with FcγRIa-FITC (summary in Example 3)
T1 construct: extracellular domain; it is not restated for the bought reagent; also called FcγRIa-FITC; FcγRI-FITC
T1 sequence (P12314 16-292): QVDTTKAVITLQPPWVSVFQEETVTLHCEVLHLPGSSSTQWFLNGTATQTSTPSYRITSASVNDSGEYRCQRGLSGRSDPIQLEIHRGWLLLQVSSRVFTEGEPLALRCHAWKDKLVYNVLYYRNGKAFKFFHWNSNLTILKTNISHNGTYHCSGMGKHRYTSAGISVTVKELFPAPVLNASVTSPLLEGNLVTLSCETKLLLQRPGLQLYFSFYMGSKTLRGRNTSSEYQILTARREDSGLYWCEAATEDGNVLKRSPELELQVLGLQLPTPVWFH

Row | Binder | binding result
1 | Fc603 (other, Aglycosylated Fc fragment (E. coli, pPelBFLAG), assayed on spheroplasts; not shown: C-terminal FLAG tag from pPelBFLAG) DKTHTCPPCPAPELLGGPSVFLFPPKPKDTLMISRTPEVTCVVVDVSHEDPEVKFNWYVDGVEVHNAKTKPREEQYNSTYRVVSVLTVLHQDWLNGKEYKCKVSNKALPAPIEKTISKANGQPREPQVYTLPPSRDELTKNQVSLTCLVKGFYPSDIAVEWVSNGQPENNYKTTPPVLDSDGSFFLYSKLTVDKSRWQQGNVFSCSVIHEALHNHYTQKSLSLSPGK | binds
2 | Fc605 (other, Aglycosylated Fc fragment (E. coli, pPelBFLAG), assayed on spheroplasts; not shown: C-terminal FLAG tag from pPelBFLAG) DKTHTCPPCPAPELLGGPSVFLFPPKPKDTLMISRTPEVTCVVVDVSHEDPEVKFNWYVDGVEVHNAKTKPREEQYNSTYRVVSVLTVLHQDWLNGKEYKCKVSNKALPAPIEKTISKAQGQPREPQVYTLPPSRDELTKNQVSLTCLVKGFYPSDIDVEWVSNGQPENNYKTTPPVLDSDGSFFLYSKLTVDKSRWQQGNVFSCSVIHEALHNHYTQKSLSLSPGK | binds
3 | Fc606 (other, Aglycosylated Fc fragment (E. coli, pPelBFLAG), assayed on spheroplasts; not shown: C-terminal FLAG tag from pPelBFLAG) DKTHTCPPCPAPELLGGPSVFLFPPKPKDTLMISRTPEVTCVVVDVSHEDPEVKFNWYVDGVEVHNAKTKPREEQYNSTYRVVSVLTVLHQDWLNGKEYKCKVSSKALPAPIEKTISKANGQPREPQVYTLPPSRDELTKNQVSLTCLVKGFYPSDIAVEWVSNGQPENNYKTTPPVLDSDGSFFLYSKLTVDKSRWQQGNVFSCSVIHEALHNHYTQKSLSLSPGK | binds

Now from value to binder:

Row | binding result | Binder
4 | binds | Fc607 (other, Aglycosylated Fc fragment (E. coli, pPelBFLAG), assayed on spheroplasts; not shown: C-terminal FLAG tag from pPelBFLAG) DKTYTCPPCPAPELLGGPSVFLFPPKPKDTLMISRTPEVTCVVVDVSHKDPEVKFNWYVDGVEVHNAKTKPREEQYNSTYRVVSVLTVLHQDWLNGKEYKCKVSSKALPAPIEKTISKAKVQPREPQVYTLPPSRDELTKNQVSLTCLVKGFYPSDIAVEWVSNGQPENNYKTTPPVLDSDGSFFLYSKLTVDKSRWQQGNVFSCSVIHEALHNHYTQKSLSLSPGK
5 | binds | Fc608 (other, Aglycosylated Fc fragment (E. coli, pPelBFLAG), assayed on spheroplasts; not shown: C-terminal FLAG tag from pPelBFLAG) DKTHTCPPCPAPELLGGPSVFLFPPKPKDTLMISRTPEVTCVVVDVSHEDPEVKFNWYVDGVEVHNAKTKPREEQYNSTYRVVSVLTVLHQDWLNGKEYKCKVSNKALPAPIEKTISKAKVQPREPQVYTLPPSRDELTKNQVSLTCLVKGFYPSDIAVEWVSNGQPENNYETTPPVLDSDGSFFLYSKLTVDKSRWQQGNVFSCSVIHEALHNHYTQKSLSLSPGK
6 | binds | Fc604 (other, Aglycosylated Fc fragment (E. coli, pPelBFLAG), assayed on spheroplasts; not shown: C-terminal FLAG tag from pPelBFLAG) DKTHTCPPCPAPELLGGPSVFLFPPKPKDTLMISRTPEVTCVVVDVSHEDPEVKFNWYVDGVEVHNAKTKPREEQYNSTYRVVSVLTVLHQDWLNGKEYKCKVSNKALPAPIEKTISIANGQPREPQVYTLPPSRDELTKNQVSLTCLVKGFYPSDIAVEWVSNGQPENNYKTTPPVLDSDGSFFLYSKLTVDKSRWQQGNVFSCSVIHEALHNHYTQKSLSLSPGK
